The DeepSol protein solubility set

Experiment: soluble on expression in E. coli; label from the status in PepcDB or PDB records
With “MSLVALTEDTQANANIGRLTVQTVEIADETTAIRCLDWDRERFDIEFGLRNGTTYNSFLIKGEKIALVDTSHRKFEKLYLEIVAGLIDPNTIDYLIVSHTEPDHSGLVKDILQLAPNITIVGAKVAIQFLENMVHQPFKSLQVKSGERLDLGNGHSLEFVSAPNLHWPDTILTYDHKTGILYTCDVFGMHYCDDQTYDENFFAIEEDFKYYYDCLMGPNARSVLAALKRIENLAIKTVATGHGPLLQVHISEWLGRYKNWSLEQAKTETLVALFYAEDYGYSEHLVHILGHGCTKTGVAVELIDLNTAEPQEVRELVTQASGLVIAMPSQYSLTAQAALNTILAAVHHKQAIGLLESGGGEDEPVFPLRNKFQELGLVEAFPPILIKEAPAQTTEQLCEEAGTDIGQWLTRDRTIKQIKSINTDLEKALGRISTGLYIITTKKGEIQGAMFASWVTQASLNPLGVAIAVSKERAIESLMQVGDHFVLNVLEEDNYQGLMKHFLKRFAPGADRFAGIKTYPATDGSPILAESLAYTECEITSRMDCGDHWIIYSTVHVGRVANVHAMTAVHHRKVGNHYEGHHHHHH” the “soluble on expression in E. coli” value was “soluble”. For “MSLAHIRTRETYGTRRLQTELAENGIIVGRDRLARLRKELRLRCKQKRKFRATTNPNHNLPVAPNLLNQTFAPTAPNQVWVADLTYVATQEGWLYLAGIKDVYTCEIVGYAMGERMTKELTGKALFMALRSQRPPAGLIHHSDRGSQYCAYDYRVIQEQSGLKTSMSRKGNCYDNAPMESFWGTLKNESLSHYRFNNRDEAISVIREYIEIFYNRQRRHSRLGNISPAAFRENIIRWLLKKRTNGSVRYCQYTSKVAMIYIEQLELIHKSGDVLYPVKITRKSSGKTAFHLVPFGLNKTHDLLEVEDASEAIRLVIDERHSIRCSTLTATITNKKGKRIKRTGIYSIKGVNIKEYNVREGHHHHHH”, the “soluble on expression in E. coli” value was “not soluble”. In the case of “IRSIWENNGFGLMSSKTMTDFDYWISDFEKIGASQKEAEQLIVKAIEIAIDANARNYNYINAILKDWEQRGFKSVEEREA”, the “soluble on expression in E. coli” value is reported as “soluble”. With “MSRPESVLQLARKFGEISAAQENDIHKSRLSLKLGGKENLTKPTLILSKSGPPTPIRHVAPTITHTLPNRPNIGGIASLKSEPKMSRPNMFKQMEKVESNTTTTAPPRQLNPNSIKDALLRWIQNRVAGYPNVNVTNFSSSWADGMAFCALIHRFAPNSFDFSKLDPNNRRYNFDLAFKVAEDNGIFPLLEVDDMIMMGDRPDWKCVFTYVQSFYKQFRDHP” the “soluble on expression in E. coli” value was “not soluble”. In the case of “MQEAVLQLIEVQLAQEEVTESPLGGDENAQLHASGYYALFVDTVPDDVKRLYTEAATSDFAALAQTAHRLKGVFAMLNLVPGKQLCETLEHLIREKDVPGIEKYISDIDSYVKSLL”, the “soluble on expression in E. coli” value is reported as “soluble”. For “MDEEKDLAQRKKEAAERAKQLARERLAARQADEQARSAAETGSLKTPPNSNGSQTETTKGEATEPASANDLALAKKRAAEEARAKAAQLRRQGEAAASGAATGDDLEAAKRKAAEEARAKAAQLRRQREAAAPGAATGDDLEAAKRKAAEEARARAAELRRQREAAESGAEDDLELAKKKAVAAAKARAAALAKQKAAEASGDDDELAKQKAAAAAKAKAAAAAKARAAALAKQQGGAGDEGAKQKAAAAARAKAEETDGGTGRSAAPSPNDPLLEKYVRIIHEHLGSDVLEDAYINRLAKDVPTLVVKKEAYYKVAELLKGHEQLRFDYLSELHGTDFQTHMEVYVHLYSYPNRHPVALKVKIERDNPEVDSLVPLWPGANWPECEAYDLLGIRFRGHPNLIRIFLGEQWVGHPLRKDYEPYDAEV”, the “soluble on expression in E. coli” value was “not soluble”. For “MGSDKIHHHHHHILLDYVESLVLSSVFPKRDFLSPTSNYLNGLKEVLYYQIFPERFANGDPSNDPNGSQSWDVDPAYANLGGDGFFGGDLKGIIDHFDHILELGVEAIYLNPIFESPSSHKYDTEDYLKIDDNFGNDYVFEEFISLAEDSGIKLILDGVFNHTGYDFFAFKDLREREETSPYKDWYFVKRFPIRKIQDRAMTYVGWNGYAYMPKVNSLNEGWQAYVERLVRKYNLEGIGGWRLDVATEVDPLFWSGFFRPLVKSLEKDMILVAEFWGDARSLLRGKTFDSAMNYPFKEAVIEYVFRAGNSAAKFAAMTNLYLNAYPPQTLHSLWNILDSHDTERILTLAFNQVDLLKIAVAIQMTFIGSPVIYYGDEVGMKGGKDPENRAPMLWDEEKWNWEIYDFYKTLIDLRRTHESIKDGEYEVLTAEGPVFSFRRWKDSEEVIVVINPSRENAFFNPEFEGEFCEYLSGRSISFFENKAEITPLTVWILVQED”, the “soluble on expression in E. coli” value was “not soluble”. With “MRAILILLDGLGDRASEILNNKTPLQFAKTPNLDRLAENGMCGLMTTYKEGIPLGTEVAHFLLWGYSLEEFPGRGVIEALGEDIEIEKNAIYLRASLGFVKKDEKGFLVIDRRTKDISREEIEKLVDSLPTCVDGYKFELFYSFDVHFILKIKERNGWISDKISDSDPFYKNRYVMKVKAIRELCKSEVEYSKAKDTARALNKYLLNVYKILQNHKINRKRRKLEKMPANFLLTKWASRYKRVESFKEKWGMNAVILAESSLFKGLAKFLGMDFIKIESFEEGIDLIPELDYDFIHLHTKETDEAAHTKNPLNKVKVIEKIDKLIGNLKLREDDLLIITADHSTPSVGNLIHSGESVPILFYGKNVRVDNVKEFNEISCSNGHLRIRGEELMHLILNYTDRALLYGLRSGDRLRYYIPKDDEIDLLEG” the “soluble on expression in E. coli” value was “not soluble”. With “MSLITVVIIDDDPFVTKSLQTILESTKEIRVLGIGHCAKDALVLYETHRPDVLLTDIRMPKQTGIDAAKEILAKFPKAILLLLTTFKDEEYIREAFSIGVKGYLIKQNLQAIIPSVKSAYNGQAVFGNEIIETFTQMMKNKPTIDSHAYASFSERELAIIKEVAAGKNNKEIADALYLSDGTVRNYISQLLEKLDLRDRTQLAIYFYQHLQEGHHHHHH” the “soluble on expression in E. coli” value was “not soluble”. In the case of “MGSDKIHHHHHHMTVEFDAARLGPILYYRGLEGDALQLAAMVMLPIGERPETLRTDAGDHAPTLLREIGRSAVWRYDFGLTPSCGSYRLGDQSYDVQTDLHGDMRIAFASCNGEEKGDLDRDQEERNRMWAHMCAEHRRAPFALLLQGGDQIYADEATEGHPLSEDWPDKAGRPRNAEELKDLADHLRLRFAERYVQALFGEAPSWIMARVPTLAIWDDHDICDGWGSLYRSKTHSEVGQCLYAVAREMYLLFQHAAVEGDIPDLFMDETGTSLSWQRALPGVKLLAPDLRAERGRRQVLGAYGWSAVEAMKPGSEHTFVISSVPLLGPRLSLVEGLMLMIPTMQKYEDDLRDQWQSRAHRKEWIRMLKQVIAWREEAPVTILSGEIHLATRAEMGPDETRVHQLVASGIAHRAPPQSYARSLGTLAGLGDAPVSGHPIRIHPLPGQSQRYTAERNYLELRRTHGKWHAVWHLEESGDTVPMVLE”, the “soluble on expression in E. coli” value is reported as “not soluble”. With “MDGHAPTFTSIQDIQGEGASSPFIDGYPYITTEEHFVTGVVSAVTSGLTKGFYLQAIENDNNDKTSEGLFIHTNAADTELKPGDVVCVKGKVQEYYNNTQLSSDATSYVKTGTSDIPLVTPLVIKEGETLRDALERHEGMQVTLNSASDLFVTRNFSYDYDSKRNNMMLSHQAPLFKPTQLHAADSAEAVALAKQNAENRVFLESDAKAPNGKIPYYPEFGQDLDQDGSSEQHIRLGSRVEGLQGVVNYSYNEYRLIATNDVNNTNFVAAGDGFDVERKAAPAIAESDLRVASFNVLNYFTSVALEHHHHHH” the “soluble on expression in E. coli” value was “not soluble”. In the case of “MIFDGHSDTWADVTIRRLNGEKDVFRRIHLDNFKRANIEGAIFVIWIDPPYDKEPEKRVKQIISSIKDEIEDMKDVVNIVKKYSDIDKGISENKINILIGLEGLSHIGRNIDLLDYFYKEVGARHASLTWNEQNELATGCLGDENRGLTEIGKKAVNKMEKLGMIVDVSHLNEKSFWDLMSVASKPVIASHSNARSLCDAKRNLTDNQLKEISNTGGLVGINSFRGFTNSNPKKQDLIHLVDHIDYMVNLIGIEHVSFGFDFSDYLGKETIGSFTGNASVPSVDGLESTHTAQNIVVELENRGYKKKDIELISSGNFYRLFKDILK”, the “soluble on expression in E. coli” value is reported as “not soluble”. For “MGARVTRALRNFNVEKRAEREISKRKPSMAPKHPSTRDLLQEHRSQYPEIEEVVSKKDNKLLSLLRDVYVDSKDPVPALPVKVEPRQEPKEFRLPIGNHFDKNITDIPKGKITVVEALTLLNNHKLSPETWTAEKIAQEYYLELKDVNSLLKYFVTFEVKILPPEDRKAIQSK”, the “soluble on expression in E. coli” value was “soluble”. With “MGSDKIHHHHHHMSNDETVEKVTQQVSELKSTDVKEQVVTPWDVEGGVDEQGRAQNIDYDKLIKQFGTKPVNEETLKRFKQVTGREPHHFLRKGLFFSERDFTKILDLYEQGKPFFLYTGRGPSSDSMHLGHMIPFVFTKWLQEVFDVPLVIELTDDEKFLFKHKLTINDVKNFARENAKDIIAVGFDPKNTFIFSDLQYMGGAFYETVVRVSRQITGSTAKAVFGFNDSDCIGKFHFASIQIATAFPSSFPNVLGLPDKTPCLIPCAIDQDPYFRVCRDVADKLKYSKPALLHSRFFPALQGSTTKMSASDDTTAIFMTDTPKQIQKKINKYAFSGGQVSADLHRELGGNPDVDVAYQYLSFFKDDDVFLKECYDKYKSGELLSGEMKKLCIETLQEFVKAFQERRAQVDEETLDKFMVPHKLVWGEKERLVAPKPKTKQEKK” the “soluble on expression in E. coli” value was “not soluble”. For “MREPYYKKLLGIKNYLIRKNYPEELEILIPKYVEENKELRGCIDCLSCLSVCPAREVSDYPGPTFMRQLARFAFDKRDEDGREITAYFENIYNCTTCAKCVEVCPKEIDIVHRAIEKLRALAFSKGYYIENHLEHHHHHH”, the “soluble on expression in E. coli” value was “not soluble”. For “MGSDKIHHHHHHMTHIVHKGLDFFVKPQKVSLNLNMKIGSLKVHPEDLKLLMKKVPVFMMSYYDNKAFMERELEISSADFPNGVVFFSYYEPVPAELNWDVDKKLISQLTKYFHLYDLVHSINSLIDETEGSSLHIGVYEEWLDRIMVKVPSENTEELRNMLSRFSLLYTTKILWKIFRGNFEELKKRTHEIAYKLYEVAGF”, the “soluble on expression in E. coli” value was “not soluble”. With “MSDLVMFEPGASTSTDVPTNTDQTAMSTTQVVDALECDTFEGLMNVNETYVEILDSALLSVQQHLDDNLKRQQQLKEEYRLYNRADITKRKVPVHLYMPPYFKDDNNMYPPMSSEAREKQVLKWFDPMMKEEKKWTPSEIKTLRTSVKNALVAHQVQPWCSRRDIVASKLRDADITTSNFDRRQWTMELEDLMRKIAYVREKSEEEVLTASADYTVVPWTAIANFDFKGSRTEWAVKSKWYNELNPKWNKEHWSNEEVEKLKYLRESPKFVSWPMLALNLGTNRTSYQCMEKYKTEVSQHSKEWSQDEDTKLIALTKITSINGHIQWDKVAQCMPGRTRQQVRTRFSHTLDASVKHGRWTDQEDVLLVCAVSRYGAKDWAKVAQAVQNRNDSQCRERWTNVLNRSAHVNERFTLVEDEQLLYAVKVFGKGNWAKCQMLLPKKTSRQLRRRYLQLIAAKLRLAAGFCNAVDAMKSGRRAPEEDELEQEDIVEAEQIPNELMKEVYEKFANENPDMNETPEEFYKRVSALERPAAARIRALKNKPDYQKIQDKINEIVQKHKNAAEIDKELHSSEILSSLTITEVDVRYMIERSKTLTRYYEARQFRKNVDQIGCRVRPIKIDLDPETMPTFDPNDAEDEKQMVIVESLCSVIRAHDVKEWGTKFWNEHRFTAPKYAKRFVENMVINKSKEVAEWYLHVNSKSCNQNDVHCPAKSTLPPTAASFDLHKMLQKARSGLNRLSAEHFYPLDVSLAQQFNFKNDEREGLDGDRRMHIGLSDEVTNSKEYANFYARMRSILLEPMRLGIARESSSDETKRLVRCLAEERACDEEQQVTCDQIRRRRMPDDEIYVTPTSISRELNNGMKIDTTELLANLDKNSAKKIRMKRKIGEVRCDTKIKLLPLVILATVATVAARPARPPRSSAGTPTPSHVSIDTESNISLKVELD” the “soluble on expression in E. coli” value was “not soluble”.
